# Test results published in patent US20230364254A1, “METHODS FOR TREATING CANCERS WITH ANTIBODY DRUG CONJUGATES (ADC) THAT BIND TO 191P4D12 PROTEINS” (priority 2020, published 2023).
# Test system: patients with locally advanced or metastatic urothelial cancer
# Experiment: Same phase 2 study: safety (adverse events, NCI CTCAE v4.03)
# Format: in vivo, human
# Description: Safety assessments will be based on the information collected through the safety surveillance process and will include the data from recorded adverse events (AEs) including SAEs, recording of concomitant medication, physical examination findings, cardiac monitoring, and laboratory tests.
# The assessment of safety during the course of this study will consist of the surveillance and recording of AEs including SAEs, recording of concomitant medication, and measurements of protocol-specified physical examination findings, cardiac monitoring, and laboratory tests.
# AE severity should be graded using the National Cancer Institute's Common Terminology Criteria for Adverse Events (NCI CTCAE), Version 4.03. These criteria are provided in the study manual.
# An overview of AEs will provide a tabulation of the incidence of all AEs, treatment-emergent AEs, treatment-related AEs, Grade 3 and higher AEs. SAEs, treatment-related SAEs, deaths, and AEs leading to study treatment discontinuation. Adverse events will be defined as treatment emergent if they are newly occurring or worsened following study treatment.
# AEs will be classified by system organ class and preferred tem using the Medical Dictionary for Regulatory Activities (MedDRA) and graded using NCI CTCAE, Version 4.03.
# The incidence of AEs will be summarized by system organ class, preferred term, severity and relationship to study drug. In the event of multiple occurrences of the same AE in one patient, the AE will be counted once as the occurrence for the maximum grade. AEs leading to premature discontinuation of study drug will be summarized and listed in the same manner.
# [1] = Cohort 2 (N = 89), additional 3 months follow-up
# [2] = Cohort 2 (N = 89), count (percent)
# [3] = Cohort 2, additional 3 months follow-up
substance,measurement,setting,value
enfortumab vedotin: Nectin-4 directed ADC: fully human anti-nectin-4 IgG1 kappa antibody (AGS-22C3) conjugated to MMAE via protease-cleavable maleimidocaproyl valine-citrulline linker,"TRAEs, Any Grade: Neutropenia",[1],11 (12) n (%)
same,"TRAEs, Any Grade: Overall",[1],86 (97) n (%)
same,"TRAEs, Any Grade: Peripheral sensory neuropathy",[1],44 (49) n (%)
same,"TRAEs, Any Grade: Pruritus",[1],27 (30) n (%)
same,"TRAEs, Any Grade: Rash maculo-papular",[1],27 (30) n (%)
same,"TRAEs, Any Grade: nnn Weight decreased",[1],23 (26) n (%)
same,"TRAEs, ≥Grade 3: Anemia",[1],5 (6) n (%)
same,"TRAEs, ≥Grade 3: Decreased appetite",[1],5 (6) n (%)
same,"TRAEs, ≥Grade 3: Diarrhea",[1],5 (6) n (%)
same,"TRAEs, ≥Grade 3: Fatigue",[1],6 (7) n (%)
same,"TRAEs, ≥Grade 3: Hyperglycemia",[1],5 (6) n (%)
same,"TRAEs, ≥Grade 3: Lipase increased",[1],5 (6) n (%)
same,"TRAEs, ≥Grade 3: Nausea",[1],1 (1) n (%)
same,"TRAEs, ≥Grade 3: Neutropenia",[1],8 (9) n (%)
same,"TRAEs, ≥Grade 3: Overall",[1],49 (55) n (%)
same,"TRAEs, ≥Grade 3: Peripheral sensory neuropathy",[1],3 (3) n (%)
same,"TRAEs, ≥Grade 3: Pruritus",[1],3 (3) n (%)
same,"TRAEs, ≥Grade 3: Rash maculo-papular",[1],7 (8) n (%)
same,"TRAEs, ≥Grade 3: nnn Weight decreased",[1],1 (1) n (%)
same,TEAEs leading to death (excluding disease progression): Acute kidney injury,[2],2 (2.2)
same,TEAEs leading to death (excluding disease progression): Metabolic acidosis,[2],1 (1.1)
same,TEAEs leading to death (excluding disease progression): Multiple organ dysfunction syndrome,[2],1 (1.1)
same,TEAEs leading to death (excluding disease progression): Overall,[2],5 (5.6)
same,TEAEs leading to death (excluding disease progression): Sepsis,[2],1 (1.1)
same,"Primary Cause of Death, treatment-related death","Cohort 2, Subject 10007-0180, death on study day 15",Metabolic acidosis
same,"Primary Cause of Death, treatment-related death","Cohort 2, Subject 10013-0190, death on study day 28",Acute kidney injury
same,"Primary Cause of Death, treatment-related death","Cohort 2, Subject 10030-0197, death on study day 25",Multiple organ
same,"Primary Cause of Death, treatment-related death","Cohort 2, Subject 82004-0178, death on study day 203",Pneumonitis
same,"Treatment-related TEAEs of interest: hyperglycemia, all grade",[3],10%
same,"Treatment-related TEAEs of interest: hyperglycemia, ≥G3",[3],6%
same,"Treatment-related TEAEs of interest: peripheral neuropathy, all grade",[3],56%
same,"Treatment-related TEAEs of interest: peripheral neuropathy, ≥G3",[3],8%
same,"Treatment-related TEAEs of interest: rash, all grade",[3],61%
same,"Treatment-related TEAEs of interest: rash, ≥G3",[3],17%
same,patients who discontinued treatment due to grade 3 dermatitis bullous,[3],one
same,skin reactions: grade 4 events,[3],1
same,skin reactions: grade 5 events,[3],no grade 5 events
same,treatment-related TEAEs (all-grade): alopecia,[3],51%
same,treatment-related TEAEs (all-grade): fatigue,[3],34%
same,treatment-related TEAEs (all-grade): peripheral sensory neuropathy,[3],49%
same,patients with severe cutaneous adverse reactions,"Cohort 2, irrespective of grade, additional 3 months follow-up",13
same,rate of hyperglycemia,"Cohort 2, patients with preexisting hyperglycemia",20%
same,rate of peripheral neuropathy,"Cohort 2, patients with preexisting peripheral neuropathy",60%
same,rate of hyperglycemia,"Cohort 2, patients without preexisting hyperglycemia",7%
same,rate of peripheral neuropathy,"Cohort 2, patients without preexisting peripheral neuropathy",55%
same,patients with severe cutaneous adverse reactions who had grade 3 events,"Cohort 2, stomatitis, skin exfoliation, dermatitis bullous, dermatitis exfoliative generalized",4
same,additional treatment-related deaths in the updated analysis,"Cohort 2, three-month follow-up",No additional treatment-related deaths
same,"AE of special interest, All Grade: Hyperglycemia",Total (N = 214),36 (16.8) N (%)
same,"AE of special interest, All Grade: IRR",Total (N = 214),14 (6.5) N (%)
same,"AE of special interest, All Grade: Ocular Events, Blurred Vision",Total (N = 214),30 (14.0) N (%)
same,"AE of special interest, All Grade: Ocular Events, Corneal Disorders",Total (N = 214),23 (10.7) N (%)
same,"AE of special interest, All Grade: Ocular Events, Dry Eye Disorders",Total (N = 214),78 (36.4) N (%)
same,"AE of special interest, All Grade: Peripheral Neuropathy",Total (N = 214),122 (57.0) N (%)
same,"AE of special interest, All Grade: Rash",Total (N = 214),126 (58.9) N (%)
same,"AE of special interest, ≥Gr 3: Hyperglycemia",Total (N = 214),18 (8.4) N (%)
same,"AE of special interest, ≥Gr 3: IRR",Total (N = 214),2 (0.9) N (%)
same,"AE of special interest, ≥Gr 3: Peripheral Neuropathy",Total (N = 214),12 (5.6) N (%)
same,"AE of special interest, ≥Gr 3: Rash",Total (N = 214),30 (14.0) N (%)
same,Any TEAEs,Total (N = 214),214 (100.0) n (%)
same,Any TEAEs leading to death,Total (N = 214),15 (7.0) n (%)
same,Any TEAEs leading to treatment discontinuation,Total (N = 214),38 (18.2) n (%)
same,Any grade 3-5 TEAEs,Total (N = 214),155 (72.4) n (%)
same,Any serious TEAEs,Total (N = 214),94 (43.9) n (%)
same,SAEs (All): Acute kidney injury,Total (N = 214),13 (6.1) n (%)
same,SAEs (All): Cellulitis,Total (N = 214),6 (2.8) n (%)
same,SAEs (All): Diarrhoea,Total (N = 214),6 (2.8) n (%)
same,SAEs (All): Febrile neutropenia,Total (N = 214),6 (2.8) n (%)
same,SAEs (All): Nausea,Total (N = 214),5 (2.3) n (%)
same,SAEs (All): Overall,Total (N = 214),94 (43.9) n (%)
same,SAEs (All): Pneumonia,Total (N = 214),6 (2.8) n (%)
same,SAEs (All): Sepsis,Total (N = 214),8 (3.7) n (%)
same,SAEs (All): Urinary tract infection,Total (N = 214),9 (4.2) n (%)
same,SAEs (Related): Acute kidney injury,Total (N = 214),4 (1.9) n (%)
same,SAEs (Related): Cellulitis,Total (N = 214),2 (0.9) n (%)
same,SAEs (Related): Diarrhoea,Total (N = 214),3 (1.4) n (%)
same,SAEs (Related): Febrile neutropenia,Total (N = 214),6 (2.8) n (%)
same,SAEs (Related): Nausea,Total (N = 214),4 (1.9) n (%)
same,SAEs (Related): Overall,Total (N = 214),39 (18.2) n (%)
same,SAEs (Related): Pneumonia,Total (N = 214),1 (0.5) n (%)
same,Treatment-related AE leading to discontinuation: Acute kidney injury,Total (N = 214),2 (0.9) n (%)
same,Treatment-related AE leading to discontinuation: Asthenia,Total (N = 214),1 (0.5) n (%)
same,Treatment-related AE leading to discontinuation: Dermatitis bullous,Total (N = 214),1 (0.5) n (%)
same,Treatment-related AE leading to discontinuation: Drug eruption,Total (N = 214),1 (0.5) n (%)
same,Treatment-related AE leading to discontinuation: Enterocolitis,Total (N = 214),1 (0.5) n (%)
same,Treatment-related AE leading to discontinuation: Fatigue,Total (N = 214),1 (0.5) n (%)
same,Treatment-related AE leading to discontinuation: Hyperglycaemia,Total (N = 214),1 (0.5) n (%)
same,Treatment-related AE leading to discontinuation: Interstitial lung disease,Total (N = 214),1 (0.5) n (%)
same,Treatment-related AE leading to discontinuation: Lipase increased,Total (N = 214),2 (0.9) n (%)
same,Treatment-related AE leading to discontinuation: Metabolic acidosis,Total (N = 214),1 (0.5) n (%)
